Numbering of substitutions follows the chain as printed.
B1: humanized VH5/Vκ2 antibody (antibody, IgG1, V domains shown)
VH: QVQLVQSGAEVKKPGSSVKVSCKASGYTFTSYWIHWVRQAPGQGLEWIGLIDPSDSYTNYNQKFRGRVTITRDTSTSTAYMELSSLRSEDTAVYYCASSDPTGCWGQGTTVTVSS
VL: DIVMTQAAFSNPVTPGTPASISCRSSKSLLHSSGITYLSWYLQKPGQSPQLLIYQMSNLASGVPDRFSSSGSGTDFTLKISRVEAEDVGVYYCAQNLELPLTFGQGTKLEIK
notes: IgG1; also called VH5/VK2; VH5Vk2
B2: humanized VH4/Vκ2 antibody (antibody, IgG1, V domains shown)
VH: B1 VH with R72V
VL: B1 VL
notes: IgG1; also called VH4/VK2; VH4Vk2
B3: humanized VH4/Vκ1 antibody (antibody, IgG1, V domains shown)
VH: B1 VH with R72V
VL: B1 VL with V13I, K79R
notes: Expressed as IgG1; also called VH4/VK1; VH4Vk1
B4: humanized VH6/Vκ2 antibody (antibody, IgG1, V domains shown)
VH: B1 VH with R65Q
VL: B1 VL
notes: Expressed as IgG1; also called VH6/VK2; VH6Vk2

Legend:
[1] = molecular target: T1, plasminogen-depleted human Fibrinogen (EMD/Calbiochem) (human, UniProt P02671 20-629; P02675 31-491; P02679 27-437, limits assumed); assay: ELISA on coated human fibrinogen; curve did not reach saturation
T1 construct: Bought protein, IgG-depleted, coated on ELISA plates; also called FGN
T1 sequence (looked up) 1: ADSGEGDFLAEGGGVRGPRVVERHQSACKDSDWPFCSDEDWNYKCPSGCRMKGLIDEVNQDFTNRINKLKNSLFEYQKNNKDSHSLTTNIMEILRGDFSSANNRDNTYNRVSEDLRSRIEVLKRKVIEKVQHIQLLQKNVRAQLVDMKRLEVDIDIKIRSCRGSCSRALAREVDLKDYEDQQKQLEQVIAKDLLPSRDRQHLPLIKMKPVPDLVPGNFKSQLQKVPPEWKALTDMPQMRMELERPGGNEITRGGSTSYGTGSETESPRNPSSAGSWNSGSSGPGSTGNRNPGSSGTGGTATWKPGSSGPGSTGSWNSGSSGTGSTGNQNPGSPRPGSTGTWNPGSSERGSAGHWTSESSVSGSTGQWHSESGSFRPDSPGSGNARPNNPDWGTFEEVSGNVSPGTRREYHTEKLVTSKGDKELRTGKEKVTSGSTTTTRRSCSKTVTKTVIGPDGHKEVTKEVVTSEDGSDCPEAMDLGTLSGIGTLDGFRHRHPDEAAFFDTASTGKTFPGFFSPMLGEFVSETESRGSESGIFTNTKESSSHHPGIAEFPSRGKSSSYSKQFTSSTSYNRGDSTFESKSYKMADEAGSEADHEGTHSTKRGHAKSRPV
T1 sequence (looked up) 2: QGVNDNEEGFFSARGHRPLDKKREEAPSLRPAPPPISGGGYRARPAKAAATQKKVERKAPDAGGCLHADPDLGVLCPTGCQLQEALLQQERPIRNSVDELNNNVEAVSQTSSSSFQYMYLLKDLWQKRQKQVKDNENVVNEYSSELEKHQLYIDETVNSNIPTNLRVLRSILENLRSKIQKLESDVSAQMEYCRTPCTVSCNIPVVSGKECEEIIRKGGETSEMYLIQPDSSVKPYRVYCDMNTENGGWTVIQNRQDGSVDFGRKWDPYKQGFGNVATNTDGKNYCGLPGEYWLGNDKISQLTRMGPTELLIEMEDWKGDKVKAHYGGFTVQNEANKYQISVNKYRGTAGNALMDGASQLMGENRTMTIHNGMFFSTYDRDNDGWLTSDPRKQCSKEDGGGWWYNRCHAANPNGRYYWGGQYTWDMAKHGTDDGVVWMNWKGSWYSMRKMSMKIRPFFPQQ
T1 sequence (looked up) 3: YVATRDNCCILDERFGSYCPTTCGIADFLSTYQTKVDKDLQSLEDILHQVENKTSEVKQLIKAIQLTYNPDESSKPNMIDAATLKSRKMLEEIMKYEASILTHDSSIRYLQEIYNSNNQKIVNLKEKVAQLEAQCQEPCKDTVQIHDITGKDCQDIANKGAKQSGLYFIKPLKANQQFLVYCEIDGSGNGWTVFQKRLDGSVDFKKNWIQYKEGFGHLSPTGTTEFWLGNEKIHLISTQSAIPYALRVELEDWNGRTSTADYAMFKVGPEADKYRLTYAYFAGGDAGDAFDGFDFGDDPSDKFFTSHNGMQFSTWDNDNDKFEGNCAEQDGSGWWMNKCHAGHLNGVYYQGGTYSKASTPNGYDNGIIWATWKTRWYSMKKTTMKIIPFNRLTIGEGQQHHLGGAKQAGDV
Description: The humanized antibodies affinity for fibrinogen, fibrin and P2 peptide were assessed by Enzyme-linked immunosorbent assays (ELISA)s (FIGS. 7-16). ELISAs for fibrinogen binding were performed using plasminogen-depleted human Fibrinogen (EMD/Calbiochem). […] IgG1-depleted Fibrinogen (FGN) in 20 mM HEPES/Saline buffer was added to each well of half of a 96-well Nunc Maxisorp™ ELISA plate. The ELISAs for fibrin binding were prepared by adding 50 mL of 20 mM HEPES/Saline buffer containing 14 mM CaCl₂, and 2 units thrombin to each well of the second half of the Nunc Maxisorp™ ELISA plate. 50 mL of 20 mg fibrinogen in 20 mM HEPES/Saline buffer were then added to a total volume of 100 mL. Plates were placed in a 37° C. incubator for 1 hour to allow fibrinogen to clot into fibrin and subsequently placed overnight into a plate dryer at 37° C. overnight. The ELISAs for P2 peptide were prepared by addition of […] of 30 mM P2 peptide in 20 mM HEPES/Saline buffer to each well of a 96-well Nunc Maxisorp™ ELISA plate. Plates were transferred to the plate dryer and dried overnight at 37° C. All ELISAs were preformed using Nunc MaxiSorp 96-well ELISA plates. Blocking was performed using 100 mL 5% BSA in DPBS are incubated at RT for 1 hour. Plates were washed 5× in DPBS containing 0.05% Tween-20 (EL406 was used for the addition of wash buffer only). 50 mL of primary antibodies was diluted in 0.5% BSA in DPBS, and the primary antibodies were added to the plates and incubated for 2 hours at 37° C. Plates were washed 5× in DPBS/Tween. 100 mL secondary antibodies were diluted in 0.5% BSA in DPBS. The secondary antibodies were then added to the plates and incubated for 1 hour at RT. Afterwards, plates were washed 5× in DPBS/Tween. 100 mL of TMB/E substrate solution was added, and the reaction was stopped after 5 minutes with 1N HCl.

[2] = molecular target: T2, P2 peptide comprising SEQ ID NO: 31 (human fibrin γ377-395) (human); assay: SPR (Biacore) single cycle, steady state affinity; IgG from HEK supernatant captured, γ377-395 peptide analyte
T2 construct: Bought (CPC Scientific 920712); also called human P2 peptide
T2 peptide: YSMKKTTMKIIPFNRLTIG

| EC50 [1] | Kd [2] | Relative KD [2] | Binder |
| --- | --- | --- | --- |
| ~2.2 µM | 79 µM | 1 fold against VH5/VK2 | B1 |
| ~3.8 µM | 47 µM | 1 fold against VH4/VK2 | B2 |
| ~3.2 µM |  |  | B3 |
| ~3.6 µM |  |  | B4 |
